Measured values from US8435786.

Biological target: Fas receptor (CD95) on mouse bone marrow cells (mouse) (UniProt P25446)
Assay: cell-based or functional assay

streptavidin-FasL chimeric protein, sequence (P22629 37-163, change not shown): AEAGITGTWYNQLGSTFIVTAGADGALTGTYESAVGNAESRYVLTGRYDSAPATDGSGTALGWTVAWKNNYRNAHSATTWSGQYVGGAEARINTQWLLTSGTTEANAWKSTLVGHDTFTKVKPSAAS
Fas receptor (CD95) on mouse bone marrow cells (mouse), sequence (P25446 22-327): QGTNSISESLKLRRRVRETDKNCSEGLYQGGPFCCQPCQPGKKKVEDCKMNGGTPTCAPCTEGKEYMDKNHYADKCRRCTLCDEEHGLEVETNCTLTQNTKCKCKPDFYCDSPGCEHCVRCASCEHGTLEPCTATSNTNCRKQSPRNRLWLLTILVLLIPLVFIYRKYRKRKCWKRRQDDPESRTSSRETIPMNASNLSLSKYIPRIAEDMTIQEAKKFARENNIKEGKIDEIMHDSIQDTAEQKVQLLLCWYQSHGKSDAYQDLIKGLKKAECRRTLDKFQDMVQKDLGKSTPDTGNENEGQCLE

In the case of “streptavidin-FasL chimeric protein (from UniProt P22629 37-163) (ligand)”, the apoptotic death of wBMC after 24 hours with FasL protein (annexin-V, 7AAD) (% of the cells) is reported as 40, the clonogenic activity of STR cells at 500 ng/ml FasL protein is reported as 26 % increase and the clonogenic activity of STR cells with FasL and inhibition of caspase-3 (DEVD) is reported as 75 % increase. The clonogenic activity of lin- BMC (CFU assay) (% stimulation at ~500 ng/ml FasL) was 45.
